Measurements taken from patent US20120253017A1.
Changes are numbered by the printed parent chain.

How the values were obtained:
[1] = biological target: mouse c-kit (recombinant, on BIAcore chip) (mouse) (UniProt P05532); test: BIAcore, dAb at 1000 and 500 nM
[2] = biological target: mouse c-kit (recombinant, on BIAcore chip) (mouse) (UniProt P05532); test: BIAcore, c-kit on SA chip
[3] = biological target: mouse c-kit (recombinant, on BIAcore chip) (mouse) (UniProt P05532); test: BIAcore, approximate kinetic constants
[4] = biological target: mouse c-kit (recombinant, on BIAcore chip) (mouse) (UniProt P05532); test: BIAcore
[5] = biological target: mouse c-kit (recombinant, on BIAcore chip) (mouse) (UniProt P05532); test: BIAcore 2000, 1 uM dAb
[6] = biological target: T1, Mouse cKIT ECD-Fc (mouse; human) (UniProt P05532); test: BIAcore
T1 sequence (looked up): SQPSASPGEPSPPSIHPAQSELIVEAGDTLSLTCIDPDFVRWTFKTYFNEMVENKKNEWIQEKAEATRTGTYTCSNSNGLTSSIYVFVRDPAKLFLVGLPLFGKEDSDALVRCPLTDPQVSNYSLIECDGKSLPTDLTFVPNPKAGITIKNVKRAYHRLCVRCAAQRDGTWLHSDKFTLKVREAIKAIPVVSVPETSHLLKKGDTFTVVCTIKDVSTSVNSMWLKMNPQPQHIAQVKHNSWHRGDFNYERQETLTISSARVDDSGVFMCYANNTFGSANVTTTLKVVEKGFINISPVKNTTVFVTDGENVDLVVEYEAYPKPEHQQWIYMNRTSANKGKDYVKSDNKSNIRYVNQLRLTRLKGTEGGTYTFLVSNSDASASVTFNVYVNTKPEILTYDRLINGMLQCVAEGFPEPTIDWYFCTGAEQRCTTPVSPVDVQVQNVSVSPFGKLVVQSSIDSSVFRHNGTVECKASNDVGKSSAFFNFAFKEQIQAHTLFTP

[7] = biological target: human c-kit (recombinant, on BIAcore chip or beads) (human) (UniProt P10721); test: BIAcore
Sequence of human c-kit (recombinant, on BIAcore chip or beads) (human) (P10721 26-524): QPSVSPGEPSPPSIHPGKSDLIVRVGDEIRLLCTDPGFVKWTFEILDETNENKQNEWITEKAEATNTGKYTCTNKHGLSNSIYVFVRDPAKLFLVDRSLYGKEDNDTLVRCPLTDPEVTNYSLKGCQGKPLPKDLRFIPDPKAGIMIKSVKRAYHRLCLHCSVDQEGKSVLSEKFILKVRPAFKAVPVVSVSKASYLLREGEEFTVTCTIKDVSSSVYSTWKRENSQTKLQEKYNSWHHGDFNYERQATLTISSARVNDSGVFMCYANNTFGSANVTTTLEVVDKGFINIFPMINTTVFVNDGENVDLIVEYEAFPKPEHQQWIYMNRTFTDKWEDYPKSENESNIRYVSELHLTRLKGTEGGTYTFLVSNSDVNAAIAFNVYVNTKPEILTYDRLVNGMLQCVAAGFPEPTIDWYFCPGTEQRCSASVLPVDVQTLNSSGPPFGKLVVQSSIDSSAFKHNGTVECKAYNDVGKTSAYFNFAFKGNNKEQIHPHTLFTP

B1: DOM28h-94 (protein)
VH: EVQLLESGGGLVQPGGSLRLSCAASGFTFFPYAMGWVRQAPGKGLEWVSFISGRGDTTYYADSVKGRFTISRDNSKNTLYLQMNSLRAEDTAVYYCAKTATSDLWNFDYWGQGTLVTVSS
A Kd [1] of 1.5 µM and a Kd [2] of 1.5 µM were found for B1 in this work.

B2: DOM28h-94-10 (protein)
VH: B1 VH with F29V, W110R
A Kd [3] of 0.112 µM was found for B2 in this work.

B3: DOM28h-94-12 (protein)
VH: B1 VH with L4P, A24V, F29V, W110R
A Kd [3] of 0.011 µM was found for B3 in this work.

B4: DOM28m-7 (protein)
VH: EVQLLESGGGLVQPGGSLRLSCAASGFTFSNYAMGWVRQAPGKGLEWVSSISSSGFATYYADSVKGRFTISRDNSKNTLYLQMNSLRAEDTAVYYCAKSESRTFKAFDYWGQGTLVTVSS
A Kd [4] of 3 µM and a Kd [5] of 4 µM were found for B4 in this work.

B5: DOM28m-23 (protein)
VH: EVRLLESGGGLVQPGGSLRLSCAASGFTFRDYVMVWVRQAPGKGLEWVSAIAPTGGYTYYADSVKGRFTISRDNSKNTLYLQMNSLRAEDTAVYYCAKSLRTWLSEDLPFDYWGQGTLVTVSS
A Kd [2] of 2.8 µM, a Kd [4] of 22 µM and a Kd [5] of 22 µM were found for B5 in this work.

B6: DOM28m-73 (protein)
chain: EVQLLESGGGLVQPGGSLRLSCAASGFTFKHYSMNWVRQAPGKGLEWVSRISPSGVSTYYADSVKGRFTISRDNSKNTLYLQMNSLRAEDTAVYYCAKIMNSHKADEFDYWGQGTLVTVSS
A Kd [4] of 9 µM and a Kd [5] of 9 µM were found for B6 in this work.

B7: DMS5052 (chimeric MLC mAb-cKIT dAb, DOM28m-007) (bispecific antibody, not shown: a dimerising Fc or GST)
heavy (part 1 of 2): QVQLQQSGAELASPGASVKLSCKASGYTFTTYWIHWVKQRPGQGLEWIGAIYPGDGDTRYTQNFKDKATLTADSSSSTAYMQLSSLASEDSAVFYCAREGTPPFTTATFAMAYWGQGTSVTVSS
heavy (part 2 of 2): STGEVQLLESGGGLVQPGGSLRLSCAASGFTFSNYAMGWVRQAPGKGLEWVSSISSSGFATYYADSVKGRFTISRDNSKNTLYLQMNSLRAEDTAVYYCAKSESRTFKAFDYWGQGTLVTVSS
light: DIVMSQSPSSLAVSAGDKVTMSCKSSQSLLYSRTRKNYLAWYQQKPGQSPKLLIYWASTRQSGVPDRFTGSGSGTDFTLTISSVQAEDLAVYYCKQSYNLFTFGSGTKLEIKR
A Kd [6] of 0.036 µM, a Kd [7] of 0.027 µM and a Kd [4] of 0.08 µM were found for B7 in this work.

B8: DMS5060 (chimeric MLC mAb-cKIT dAb, DOM28h-094) (bispecific antibody, not shown: a dimerising Fc or GST)
heavy (part 1 of 2): B7 heavy (part 1 of 2)
heavy (part 2 of 2): STGEVQLLESGGGLVQPGGSLRLSCAASGFTFFPYAMGWVRQAPGKGLEWVSFISGRGDTTYYADSVKGRFTISRDNSKNTLYLQMNSLRAEDTAVYYCAKTATSDLWNFDYWGQGTLVTVSS
light: B7 light
A Kd [6] of 0.013 µM, a Kd [7] of 0.036 µM and a Kd [4] of 0.014 µM were found for B8 in this work.
